{
  "source": "patent US6544504B1",
  "about": "“Combined use of interleukin 10 and methotrexate for immuno-modulatory therapy” (Schering Corporation, priority 1999, dated 2003)",
  "format_in_all_cases": "in vivo, human",
  "key": {"[1]": {"tested_on": "TNFα, IL-1β, soluble TNF p55 and p75 receptors, IL-1 receptor antagonist", "assay": "Ex-vivo induced proinflammatory cytokines and circulating soluble TNF receptors / IL-1 receptor antagonist", "details": "nearly all IL-10 treatment groups compared with placebo, plus MTX", "protocol": "(§1) Fifty patients were to receive one of five dosing regimens of IL-10 (SC) (1 μg/kg daily, 4 μg/kg daily, 8 μg/kg three times a week [TIW], 8 μg/kg daily and 20 μg/kg TIW) or placebo for 28 days, in addition to stable dosing with MTX (Treatment Phase). The patients were followed for 8 weeks after the end of IL-10 dosing (Follow-up Phase). Patients received MTX at therapeutic doses for at least 4 months prior to study entry. The dose of MTX was 12.5-25 mg/week (oral, subcutaneous or intramuscular) and remained constant throughout the study (Screening, Treatment and Follow-up Phases).\n(§2) The primary objective was to evaluate, in a dose-escalating manner, the safety and tolerance of IL-10 (SC) therapy given daily or TIW plus MTX (oral/intramuscular/SC) over a 28 day period to patients with active rheumatoid arthritis. The secondary objectives were to evaluate the effect of IL-10 on measures of rheumatoid arthritis Disease Activity, and to determine changes in the circulating levels of soluble p55 and p75 TNF receptors and IL-1 receptor antagonist. […]"}, "[2]": {"tested_on": "patients with active rheumatoid arthritis", "assay": "Safety and tolerance study of IL-10 plus stable MTX in active rheumatoid arthritis", "protocol": "(§3) A multinational, multicenter, sequentially randomized, double-blind, placebo-controlled, rising multiple-dose study of IL-10 plus methotrexate (MTX) treatment was completed in patients with active rheumatoid arthritis.\nas §1\n(§4) Patients were sequentially enrolled into the study in dose cohorts starting with the lowest dose of IL-10. Safety was assessed for each dose level prior to progressing to the next higher dose. Ten patients were assessed at each of the IL-10 dose cohorts: 8 received IL-10 and 2 received placebo (4:1). There was no replacement of patients.\nas §2, with “antagonist. Protocol-defined responders were defined as those patients with at least 20% ACR criteria, i.e. at least 20% improvement in number of tender joints, number of swollen joints and in at least 3 of 5 RA Disease Activity measures (i.e. subject's assessment of pain, disease activity or physical function and physician's global assessment of disease activity.” for “antagonist.”"}, "[3]": {"tested_on": "patients with active rheumatoid arthritis", "assay": "Rheumatoid arthritis Disease Activity / ACR response in the IL-10 plus MTX study", "protocol": "as §3, §1, §4\nThe primary objective was to evaluate, in a dose-escalating manner, the safety and tolerance of IL-10 (SC) therapy given daily or TIW plus MTX (oral/intramuscular/SC) over a 28 day period to patients with active rheumatoid arthritis. The secondary objectives were to evaluate the effect of IL-10 on measures of rheumatoid arthritis Disease Activity, and to determine changes in the circulating levels of soluble p55 and p75 TNF receptors and IL-1 receptor antagonist. Protocol-defined responders were defined as those patients with at least 20% ACR criteria, i.e. at least 20% improvement in number of tender joints, number of swollen joints and in at least 3 of 5 RA Disease Activity measures (i.e. subject's assessment of pain, disease activity or physical function and physician's global assessment of disease activity.\nFifty patients were enrolled and sequentially randomized to receive one of the five dosing regimens of IL-10 (SC) (1 μg/kg daily, 4 μg/kg daily, 8 μg/kg TIW, 8 μg/kg daily and 20 μg/kg TIW) or placebo which formed the intent-to-treat population (ITT). Mean duration of treatment was at least 26 days for each of the treatment groups. The treatment groups were similar in demographic characteristics except for slight differences in age. Baseline characteristics of RA Disease Activity were similar for treatment groups."}, "[4]": {"details": "each IL-10 dose group plus MTX versus placebo plus MTX"}},
  "note": "“Also recorded” adds a separate entry of the source.",
  "data": [
    {"substance": "IL-10: a cytokine produced by T lymphocytes; protein with sequence substantially identical to mature IL-10; most preferably recombinant human IL-10", "values": [
      {"measurement": "circulating serum levels of soluble TNF p55 and TNF p75 receptors and IL-1 receptor antagonists", "setting": "[1]", "result": "trend towards increased circulating serum levels"},
      {"measurement": "production of ex-vivo induced proinflammatory cytokines (TNFα and IL-1β)", "setting": "[1]", "result": "trend towards decreased production"},
      {"measurement": "safety and tolerance", "setting": "[2]; IL-10 SC 1-20 μg/kg daily or TIW for 28 days plus stable MTX 12.5-25 mg/week", "result": "generally well tolerated; also recorded: safe and well tolerated"},
      {"measurement": "most frequently reported adverse events", "setting": "[2]; IL-10 SC for 28 days plus stable MTX", "result": "headache, injection site reaction, nausea, musculoskeletal pain, with no dose-response relationship seen"},
      {"measurement": "anti-dsDNA or anti IL-10 antibodies", "setting": "[2]; IL-10 SC for 28 days plus stable MTX, any time during the study", "result": "No anti-dsDNA or anti IL-10 antibodies were present"},
      {"measurement": "effects on rheumatoid arthritis Disease Activity (conclusion)", "setting": "[3]; IL-10 in combination with MTX, greatest for 8 μg/kg TIW, 8 μg/kg daily and 20 μg/kg TIW", "result": "may have beneficial effects"},
      {"measurement": "protocol-defined response (percentage of responders)", "setting": "[3]; after 28 days of dosing versus baseline, ITT population, compared with placebo plus MTX", "result": "trend toward a greater percentage of responders"},
      {"measurement": "mean change from baseline for individual clinical measures of rheumatoid arthritis disease activity", "setting": "[3]; after 28 days, compared with placebo plus MTX", "result": "generally showing a greater percentage of responders than in placebo group"},
      {"measurement": "percent of patients having a 20% improvement in disease activity (ACR 20)", "setting": "[3]; [4]", "result": "higher for each of the IL-10 treatment groups than for the placebo group"},
      {"measurement": "percent of patients having a 50% improvement in disease activity (ACR 50)", "setting": "[3]; [4]", "result": "higher for each of the IL-10 treatment groups than for the placebo group"}
    ]}
  ]
}
